Experimental data taken from a protein production outcome set (Wang et al. 2014).

Experiment: label from the status in PepcDB records
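Also: failed if final PepcDB status was selected cloned or expressed and not failed if soluble or beyond.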

Sequence | protein production
MNTTLFRWPVRVYYEDTDAGGVVYHASYVAFYERARTEMLRHHHFSQQALMAERVAFVVRKMTVEYYAPARLDDMLEIQTEITSMRGTSLVFTQRIVNAENTLLNEAEVLVVCVDPLKMKPRALPKSIVAEFKQ | not failed
MGTPGEGLGRCSHALIRGVPESLASGEGAGAGLPALDLAKAQREHGVLGGKLRQRLGLQLLELPPEESLPLGPLLGDTAVIQGDTALITRPWSPARRPEVDGVRKALQDLGLRIVEIGDENATLDGTDVLFTGREFFVGLSKWTNHRGAEIVADTFRDFAVSTVPVSGPSHLRGLCGMGGPRTVVAGSSDAAQKAVRAMAVLTDHPYASLTLPDDAAADCLFLRPGLPGVPPFLLHRGGGDLPNSQEALQKLSDVTLVPVSCSELEKAGAGLSSLCLVLSTRPHS | failed
ITSFIRNRDKLTQAEYLLRLAGEKASLGGWRIELDPPVITWTSETAVIHGMPPDYSPPDVGTAVQFYAPEFREFIMEVFERCVQQGEPFDVICQLQVPDGRRPWIRAIGEAERDAQGKVIVVQGAFQDIS | failed
HHSVEAPQVKKRMGKFPFVKASKKESEEISKQLHNALDIELPSESTVWLRDKDVWLFPDALEPMIGELRFSRMGIKIAEAHKNGYRWQHQVATALATGAESNAIELTIEEAREWYMGRDVRPQIIPEGLKTGKGEVLVKYQGAIIGLGKWVSNRIKNGLPRELVRDKNLF | not failed
MEICSMSQPSSDQSVASFESKSLNILGEHIPVSELAGCEECDTVYRKVKLAAGERAYCVCCGAELYRKTRSLTSLLALVVTALIIFAIANSFPIVKVELQGNTSQTTLLGAAWTMFQIDRALVGILILFTTFIVPLLDLLLLTYILSSVGIFKQRPPYLRLALRILFLFRVWGMVEVFLIGVLVTLVKLVGMVVVIPGVALWAFAILSLLLVYIASVKIKDIWDEVDRCVP | failed
YDLLCRERDNFRILVAITNAVLSRLDIDELVSEVAKEIHHYFNIDAISIVLRSHRKNKLNIYSTHYLDEHHPAHEQSEVDEAGTLTERVFKSKEMLLINLNERDPLAPYERMLFDTWGNQIQTLCLLPLMSGKTMLGVLKLAQCEEKVFTTANLKLLRQIAERVAIAVDNALAYQEIHRLKER | failed
MARGPPRALASTRSPSTHMTAISNPDSEDLHIIIAGAGRVGHRTARVLRDQGHEAYLIDKDPDIVEDARQALGATVIEGDATDPKVLAQADPERADVLAALTETGATNFAICAVVKHLTGDIRTVARIERPDQLDEEGTFFDRVVYPERAGAKSAVNQILTGDTRVFEDVGGDLDVAEVQVAPEAPAAGKQLDAAALPDQSHVVFDVTNDEVPQPSTELVPGHRYLIAAAPGVAREARRRLVG | failed
MMISDLPEDMVEEILSRVSIISLGALRWNDLSKARVICKAEARQQFAGFMIKGSKEVSNTRLVVWNPYLGKIWSIQHRSAYHSENRYTLGYDNNRKPQNLEEQLAVLLHNWGAFAMEIWVTTNIEPNAKKHAVIFDSSLSCGSVACIIGETGNLRTVDLGVAAVPYRQLPVCSYAPSLEQINQGQELPLIGLTQIFMEQHKYWVSTFLDNLITKYG | failed
MADTGDTAGAKKNGDSTFTVLVAAFANLGIAVAKAVAGVISGSSAMLSEAAHSVADTVTEVLLLTSLKRSVRPADEDHPLGHGPERYIWALLAAVATFVGGAVFSLYDGIHTLTHGEDLGDPLVSYIVLAVAFVLEGYSLRTGLRQVRGEAAHHRVSFGRYLRRTPDTAVKAVVMEDSAALAGLLLAAGGLLGGQLTGSGVWDAVASLCIGALLLYVAWVLGRSNAEFLVGRPLSRSVRDRIRAELVADEHIEAVLELTTLVQGPREALVAAKVDFRDVSTAAQIEWACERAEQRLREEFPIVRRVYLDPTPGFAQRRTEGLNPWP | failed
MGNKITVEVTVYAAIEKVWKYWNEPAHIMKWCQASPEWHVPAAQNDLKAGGTFTTTMAAKDGSMSFDFGGVYDQVKTNDLIEYTIGDGRKVRIVFTHTGDTTNIVESFDPEETNPRELQQSGWQAILNSFKSYTENNLEHHHHHH | not failed
METQDHTLYVLLGPTGVGKTDLSLDIAERLGSPIISADSRQIFRELPIGTAAPTPEQRAKVPHLFVGTHSVRDYYSAGMYEVEVLEALKELFRKYRGVLLTGGSMMYIDAVCRGIDDIPDPFPEVREELYARYAAEGLDGILAQLRLLDPDYYAKVDRRNYKRVIHGLEICLSTGRPFSSFHRHEAKERPFRIVKIGLYREREELCKRIDARVLEMMEQGLEEEARAVYPLRHLNALNTVGYKEMFEYFDGSIDRAEAVRRIQRNSRVYARKQMTWFRRDSTIRWFHPEADKGTVLTLVT | failed
MTHTVIVPGVGGSEQHHWQSWLQRQLSSCSRVEQNDWNLPVLSDWVSHLISHVQQLEQPVQIVAHSFGCLTTLAALEQHPQLINQVKHITLVAPANPERFGEAGFARDSQTDYRAYFHQLKPSIKTQLIISENDPWLDFEEALQLAKSWQVRATNLGKVGHINVASGFGPFPEIFDYMLP | failed
MDIPQAIKYYEQACDLDGDYGCFNAAYFYEYGIGTQKDITQAKTLAKQLREKINLSNINLDKKVSERIIGSVYSNKLEAYRDLSFRPHFIQGLSFYFYAPQSDERKLLSRIGFDSSHLARIAILWAREGDPEVAYQTAKLVSTLYFNNETKTIDIAEALKWLRISAEKGDADSQTLLGFLYEHAGLGLQPDGEKARKWYEMAAQQGNGEALYTLGRMYYSGVLVNVDYDKALYFFKKAYEKKLQEAADYLAQMYFNGQSVDVDCQQSWHYYDNSYIKKMTQRDYLDYCEKDRKRRNDFNQQLPELTLEKYAGLFGRIDNIPLCQIGFVVNTNKLIHVANLRVELILKNDAGVSDERMVAFPPLGLNTLGAEQGMGDSFKSMGYLLMKNGDLCDYHKLTFTVKSATATINGKKVDLLKTDNLHIIQNR | failed
VSKAVQYMAKRRIGALIVFEKETGLQDYIETGIPMNSDISQELLTNVFIPNTPLHDGAMIIQGSKIAVAASYLPLSDSVKISKSLGTRHRAAVGISEVSDAFTVVVSEETGDISVTFDGKLRRDISKDVFEELLAEHWFGAHFQKKGVNS | not failed
TLIYGHRGAKGEAPENTLASFQRCLEHGVNRCELDLHLSRDGELMVIHDPTLKRTTGRRGKVAEHDAATLATYDARKGGPGWVRPTPIPRLEELFEKCPFEHWQLEVKSASRERAARTVTRIRELTERFGNRDKVTVTSGSRTVLKALNELTPELSRGLVAEYAWLDPLKVAQHYGCALLALNWTLCTPERLLKAQRQGLHVSVWTVNEPALMRRLADFGVDSLITDFPGLASATLGNR | failed
MDRNLVQKGDAPPSKRSDPGTEFCVDIVVKGRKTEVPERFRKHVAEKLKLEKIQKLDGKVISLDVEVSKEPNPRQADRCDRVEITLRSRGPVIRAEAAASDPYAALDLAAEKLGARLRKQHDKRFSRRGARRISAAEVADHVPGAATLNGNGDVVPTEKQDGVPTKKIGSLEVQGDGPLVVREKTHVAAPMSLDQALYEMELVGHDFYLFVDSETKEPSVVYRRHAYDYGVIHLTTDTMVTQAHAPDAGDALGGLEHHHHHH | failed
MGVALRPLLAEYKESPGWDGLGGIAAVDAFNALYQFLSGIRQADGAPLMDGQGRITSHLSGLLFRNANLIEKNITPIYVFDGKPPVFKASTLSKRREVRENAADAWEKALKEGDEESARKYAMASSKIDAFIIDSSKELLSALGIAWIQAPEEGEAQSSFMTKNGDVTYAVSQDYDSLLFGAPDLVRNITVSGKKRIRGKVLSVYPERLRLEEVLTGLSVTQEELIQIALLIGTDYNSGVPGVGPKTAVKIVREGKFYDRIGESENAAEPDQLIGYFMDPPVERSYNIESRSPDPDRVIDLLCGEHGFTQERVEAGLERLGAKKGQATLDAWF | failed
MRRRKYPWKQADILIHRYCRRLTTGQRLAVIAVAFALFMAGCLYMLLSSLLGFGETGGGLQIEHIRPLDIKPEKDTTIHFKDYYDYGHSENQDTVRLVC | failed
MFNPNVAVKNIVTQNGADSIISLIARILMAYIFLVAGWGKITAYSATVGYMEAMGVPGALLPLTILVEFGGGLALLFGFQARFAAFGLGIFSLLTAFIFHEGTDQAQAINFMKNFAMAGGLFFLMLHGAGKISLDAAIEK | failed
MDLTIQHFIALAPLLITSLTVVVVMLAIAWRRNHSQTFLLSVAGLNLALLSIYPALKVAPLVVTPLLHIDNFACLYMAIILASTLACVTMAHAYLGDGKVGYPGNREELYLLILLAAAGGLVLVSAQHLAGLFIGLELLSVPVYGLVAYAFFNKRSLEGGIKYMVLSAAGSAFLLFGMALLYAEAGSLSFEGIGKAIAATGMPSPIATVGLGMMVVGLAFKLSLVPFHLWTPDVYEGAPAPVAAFLATASKVAVFAVLVRLFQISPAASSGVLHDVMAVIAVASILVGNLLALTQTNLKRLLGYSSIAHFGYLMIALVASKGMAVEAIGVYLATYVLTSLGSFGVITMMSSPYSGRDADAMFEYRGLFWRRPYLTAVMTLMMLSLAGIPLTAGFIGKFYIIATGVESQLWWLIGALVIGSAIGVFYYLRVMVTMYLVDNKLPRHDAAINWAQRTGGVMLLAVAILTFVLGVYPQPLLDLVVNAGLHAAG | not failed
MAELGITLRTVQSLGPGETIWDAGHRAAVRGFGVRRQRGAPVYVLKYRAHGRQRFFTIGPHGSPWTPERARREAKRLLGLVADGKDPADDRAEAALQAADTLLKIADQYLKHAKQKQRPRTYSEIERYLLTAWKPLHPVSVFLIKRRHVAIRIAEIATGQGAVTAARARAALSAMFNWAIREGLDIPANPVLGTNRPAAPRSRDRVLADGELAEIWAALGDDDYGRIVKLLLLTAQRREEVGSMRRTELDLENSVWKIPGNRTKNHREHKVPLTKAAIALIPLPRGNREYVFGDGPRREGDNHRGYSGWSKSKAGLDARLLAVRQKALDAGVAAEPLPDWHLHDLRRTAATVMADRLGVFPHIVEAVLNHVSGHRAGVAGVYNLARYETDMRAALNAWADNIKDIVAS | failed
IRHEITSRTSVSVLVNRCNWFCTSPKCSGLTVMGCLCVAMSVAKKDKPTMSVTALINWARPLPPGQQQQPMTPTSPGNMLQPMATPSNLPTVDCSLDIQWLNLEGGFMSPMSPPEMKPDTAMLDGLRDDSTPPPAFKNYPPNHPLSGSKHLCSICGDRASGKHYGVYSCEGCKGFFKRTVRKDLTYACREERNCIIDKRQRNRCQYCRYQKCLACGMKREAVQEERQRAARGTEDAHPSSSVQVQELSIERLLEMESLVADPSEEFQFLRVGPDSNVPPKFRAPVSSLCQIGNKQIAALVVWARDIPHFSQLEMEDQILLIKGSWNELLLFAIAWRSMEFLTEERDGVDGTGNRTTSPPQLMCLMPGMTLHRNSALQAGVGQIFDRVLSELSLKMRTLRVDQAEYVALKAIILLNPDVKGLKNRQEVEVLREKMFLCLDEYCRRSRSSEEGRFAALLLRLPALRSISLKSFEHLFFFHLVADTSIAGYIRDALRNHAPPIDTNMM | not failed
MVVLAVLLPVVFGALLLLGLPRALGVLGAGLSFLLNLYLFLTHPGGVAHAFQAPLLPGAGVYWAFGLDGLSALFFLTIALTVFLGALVARVEGRFLGLALLMEGLLLGLFAARDLLVFYVFFEAALIPALLMLHLYGGEGRTRALYTFVLFTLVGSLPMLAAVLGARLLSGSPTFLLEDLLAHPLQEEAAFWVFLGFALAFAIKTPLFPLHAWLPPFHQENHPSGLADALGTLYKVGVFAFFRFAIPLAPEGFAQAQGLLLFLAALSALYGAWVAFAAKDFKTLLAYAGLSHMGVAALGVFSGTPEGAMGGLYLLAASGVYTGGLFLLAGRLYERTGTLEIGRYRGLAQSAPGLAALALILFLAMVGLPGLSGFPGEFLTLLGAYKASPWLAALAFLSVIASAAYALTAFQKTFWEEGGSGVKDLAGAEWGFALLSVLALLLMGVFPGYFARGLHPLAEAFAKLLGGGA | failed
